The record followed here is patent publication US8734803.

First the molecules themselves.
B1: plant-produced humanized 2B9 antibody G2K3 (antibody, V domains shown)
VH: QVQLVQSGSELKKPGASVKMSCKAAGYTFTNYWIGWVRQAPGQGLEWIGDIYPENDFSNYNEKFKDRATLTADTSTRTAYMELSSLRSEDTAVYYCVRANEGWYLDVWGQGTTVTVSS
VL: DIQMTQSPSSLSASVGDRVTITCRASENIYSYLAWYQQKPGKAPKLLVYFAKTLAEGVPSRFSGSGSGTEFTLTISSLQPDDFANYYCQHHYGTPYTFGQGTKLEIKR
B2: plant-produced humanized 2B9 antibody G5K4 (antibody, V domains shown)
VH: QVQLVQSGSELKKPGASVKVSCKAAGYTFTNYWIGWVRQAPGQGLEWIGDIYPENDFSNYNEKFKDRVTITADTSTSTAYMELSSLRSEDTAVYYCVRANEGWYLDVWGQGTTVTVSS
VL: DIQMTQSPSSLSASVGDRVTITCRASENIYSYLAWYQQKPGKAPKLLVYFAKTLAEGVPSRFSGSGSGTEFTLTISSLQPDDFATYYCQHHYGTPYTFGQGTKLEIKR
B3: plant-produced humanized 2B9 antibody G2K4 (antibody, V domains shown)
VH: QVQLVQSGSELKKPGASVKMSCKAAGYTFTNYWIGWVRQAPGQGLEWIGDIYPENDFSNYNEKFKDRATLTADTSTRTAYMELSSLRSEDTAVYYCVRANEGWYLDVWGQGTTVTVSS
VL: DIQMTQSPSSLSASVGDRVTITCRASENIYSYLAWYQQKPGKAPKLLVYFAKTLAEGVPSRFSGSGSGTEFTLTISSLQPDDFATYYCQHHYGTPYTFGQGTKLEIKR
B4: plant-produced humanized 2B9 antibody G5K3 (antibody, V domains shown)
VH: QVQLVQSGSELKKPGASVKVSCKAAGYTFTNYWIGWVRQAPGQGLEWIGDIYPENDFSNYNEKFKDRVTITADTSTSTAYMELSSLRSEDTAVYYCVRANEGWYLDVWGQGTTVTVSS
VL: DIQMTQSPSSLSASVGDRVTITCRASENIYSYLAWYQQKPGKAPKLLVYFAKTLAEGVPSRFSGSGSGTEFTLTISSLQPDDFANYYCQHHYGTPYTFGQGTKLEIKR

The target of the assay is NA (neuraminidase) used in the NA activity inhibition experiments of Example 9. Nature of the assay: cell-based or functional assay.
Regarding B1, the IC50, inhibition of NA activity is 0.5 µg/mL. Turning to B2, the IC50, inhibition of NA activity stood at 0.21 µg/mL. The figure for B3 is 1.16 µg/mL; for B4 it is 0.45 µg/mL.
